Results from the supplement of paper PMC12455559.

Assay: purified protein yield per well (BCA); higher = higher soluble expression
Summary of the method: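 Candidate enzymes were made in 2 mL autoinduction cultures of E. coli C41(DE3) with 100 µg/mL kanamycin, at 37 °C for 2 h and then 18 °C for 40 h, and purified with Ni-charged magnetic beads and SUMO protease cleavage. The Pierce Rapid Gold BCA kit gave purified protein yield per well. Values lower than 25 ug (0.1 mg/mL) are below the detection threshold.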

Sequence	purified protein yield per well [µg]
VENGPAPTLASVQADGPYAVSTQSVSGTGFGGGTVYSPNTAGKYAVVAVCPGFTATQSSIAAISRRLATHGFVVVTINTKSTYDFPPSRANQILAALRTVTALTTGPVAGKMDISRQGVAGWSMGGGGAMLAAGMTPGLKGGVAFAPWAQSSNVSSSAVPMSYLAGSADGVAPPSMSTSFYNATPGTTRKMLGVIRGADHNFPKTASQPASYTQVAWMKRFLDSDTRYSQFLNGDSRFSTFRSTGPF [ESM088]	< 25
CDSILFQSIASPGPYNVLSIDESDGIRNGQDYNGATIFYPEGNLYNLPSIVFVPGYSNTQFTIQNWGLFLASYGIVTMTIGTNTLIDSHIQRKDALLDALITIKQENVRSSSPLYNSLDTLKLALGGFSKGGGGAQLAASIGQNIKAVIALYPWLENISAVDLNHDVPVLIVSGNLDIIAPPSLHADVHYMYTPETTKKLKYEIAFATHDPLIGPNAGFGEVGKKTLSWLQTFLLGDSCFCPYLLDTPSNASIYMSNLNCTEISTNTYNLESNQEKKILKIIDIFGREVRPKKNMILFYIYNDQSVKKIIIK [TEP139]	< 25
MGVRYPEQGGFGGVAAVPGYNSAEKAVAWLGPRLASQGFVVITIATKGRSDQPTARGKQLLAALDYLTAKSPAAVRQRLDPQRLAVTGHSMGGGGSLYAAWTRPGLKAAVPLAPWHSIKNWSGITVPTLVQGGTSDDVAPVGTHAEPIYRSLTGARERAYAESAGADHGTFVREDPLIGALTVAWLKRFVDDDARYEQFLCPAPADPGLTEYRHSCPSS [TEP121]	< 25
VANPYQRGPAPTEASVTAKLGPFAIASKKVGAFSHPGIREGTVYYPTDTSQGTFGAIAVAPGFVSPEALVSWYGPRLASQGFVVMTLEITTGFDLPEARAAQLLSALDFMKKDNTIKNRIDPNRLAVMGWSMGGGGTLRAAQQSASLKAAIPLAPWDLGMDWSNVRVPTMIIGGDNDFVASPGFHAEPFYTQLADEKAYLELENAGHFTFTSDNNTIAKYAISWMKRWVDEDTRYTQFLCPPPPAPSPTIQKYRQTCPY [DP046]	< 25
VQNGPAPTLAALKADGPYAITSQAVAGNGFGAGTIYTPTAAGKYALVAICPGFVSAQSTMAGLAKRLATHGFVVVAISTNTLLDFPSSRATQLLAALKTVSALNTGAVAGKVDTTRQAVSGWSMGGGGTLEAAGATPGLVAAVAFAPWDTSTTKMKVNKVPAAIIGGSSDAVAPVASHSQKFYD [ESM063]	< 25
MGSNPYQRGPDPTTSSLEASRGPFSVASFTVSRPSGYGAGTVYYPTNAGGKVGAIAIVPGYTARQSSINWWGPRLASHGFVVITIDTNSTLDQPSSRSSQQMAALRQVVSLSGTSSSPIYNKVDTSRLGVMGWSMGGGGSLISARNNPSLKAAAPQAPWNSSKNFSSVTVPTLIIACENDTIAPVNSHALPFYNSMSRNPKQYLEINGGSHSCANSGNSNQALIGKKGVAWMKRFMDNDTRYSSFACSNPNSSSVSDFRTENCSAS [TEP184]	< 25
MHPSFPESEDPAPAARHSAAPLSRDCAHPPARRSTHRTAHRIAHRTARPDRSRRRIRGVLAAATAALLAVAGLTLIPNASAAENPFERGPAPSASSLAAARGPFATSQVTVSSRDASGFGGGTIYFPTSGDEGTFGAVAVAPGFTASRSSMAWLGPRLASQGFIVFNIDTITRSDQPASRGRQLLAALDFLVERSPIRDRVDPDRLAVMGHSMGGGGALEAAESRPTLRAAIPLTPWNLNKNWSRVQVPTMVIGAERDTIASVRFHSEPFFDSLPSDLDKAYLELNNASHFAPNIPNATISSFSVAWLKRFVDDDTRYEQFLCPPPRPAGEISEYQDTCARAS [TEP191]	< 25
MRDGPKFGTATVYYPENAQAPYASLLIVTGFVHPESAMKAWGPFLASHGIVTLTIGTNKLKDDPFKRRDALLDAVRSLKAEHLRKDSPLWHKLALDRIGVAGWSMGGGGAQLAAAADPSLRAVIGFCPWLPKANFEHPVPSLIIAGTLDSIANVFLNARAHYAGISETTPKLIIEIPYGGHWIANDPANANGAIGQIGLSWLKVYLEGDTRYRQFLLTPPISGGYFRHNLE [TEP077]	< 25
MRSDCSPPWRWWPGAALAPAANAAAPAHPVRLAANPYERGPAPTEASITAEKGPFAIERIDVPAGSGPGFNKGTIYAPTDLSQGTFGAIAVSPGFVSPQAWIDWYGPRLATQGFVVMTLETNSLFDVPAARGEQLLAALDYMTGGSRVKDRIDASRLAVMGHSMGGGGTLEAADDRPALQAAVPLAPWNTNYDWKNVRVPTMIMGADNDAIAPADSMAESYYDNLTSVPEKAYLELKNAGHMTFNSPNTTIAKYTIAWMKRFVDDDARYERFLCPEPAPGATIAQYEGTCPTG [TEP141]	< 25
QIGPDPTSSSLNATSGPFAVSTSNVVLARGFGGGTIYYPTTTGRYGVVAISPGFTATESSVAWLGRRLATHGLVVITINTNSTLDQPASRATQLMAALNHVVNSASSTVRSRVDSTRLAVAGHSMGGGGALIAAENNPTLKAALPLTPWNLSSSFTQVQVPTLIVGADGDSVASVAVHARPFYASLPATTFKAYAELNGASHFTPNSTNTPIGRYGTAWMKRFVDADSRYSPFLCGAPHEAYATALVFDRYNQNCPY [DP027]	< 25
QQTGPDPTSASLNATAGPFAVSTATVTSPVGFGGGTIYYPTIAGQYGVVALSPGFTATQSSVAWLGRRIATHGFVVVTINTNSTLDQPASRANQLIAALNYVANSASTTVRSRVDASRRAVGGHSMGGGGSLIAAQNNPSLKAILPLTPWNLSTNFSGVQVPTLIVGADGDAVAPVASHARPFYASLPSTVRKAYGELNMASHSTPTSGVNTPIGRYGVTWMKRFVDGDTRYSTFLCGAEHQAYATATVFDRYSQNCPY [ESM127]	< 25
QTSAPTSSSLNATSGYLSVASENVSSLSASGFGGGTIYYPSTSGQYGLIAISPGFTATESSVAWIGRKLASHGFVAIVINTNTTLDQPASRARQLRAALDHARLRASSTVRSRIDASRQAVAGHSMGGGGSLIAAEDDPTLKASFPLTPWNTTTSFTNVRVPTMIFGADGDTIAAVAAHARPFYASIPSSTKKAYAELNGATHFTPNSRNEAIGRYGVAWMKRFMDNDTRYSTFLCGSEHNSYNTSLRFDRYNSNCPY [ESM123]	< 25
QTPTRESLSRQGPYQVAYYSSLPDVPEYAGATLYFPANKGDSFGGVAIAPGFIETQENIAWWGEYLASYGFAVLTLDTNSPRDIPALRADALMAAVEIIRGENTRMGSPLRGKIDVTRMAIMGHSMGGGGTLLAANAHSDQLKAAIPFTPWLPDADFSAVAVPTLVIAGEIDRIAAAAGHAWPHFQTLPDNIPKMYLEIKGGNHFIANSVTDNEGLAPNIDVHDLVGSMS [TEP027]	< 25
RPAPEAAAPQAAQGNPYQRGPDPTVAAIEASRGPFATAQMSVAPGNGFNGGVVYYPTDTSLGTWGALAIVPGYTALCADEEAWMGPWLSSFGFAVICVETNTRTDDAGTRASELLAGLDWLTTQSPVRAEIDPNRLSVLGHSAGGAGAIIAAERRPALKAMIGLAPGFPGNGLSMATDTVPTLVVGGQNDTVVTPSYLSGLYATLPAGTQSGFAQIAGADHVYYTRPNNVEMKLLIPWLKVFVDSDTRYTQFLCPALPDPSGISAYQPKCPYVPTGGTTPPPGGQSVHAVGAGKCLTVPGADPAAGTQTDISTCDGGTGQVWTRTSSGQLTVSTGGTTMCLDAAGAGVSPGTRVQVWPCNGGSNQQWRVNANGTITGAQSGLCLDVTGASTANGALVELWTCNGGSNQQWALQ [TEP183]	< 25
CGDRDAGDPAPTESSLTAPLGPEKYRTEVVPRAYVEAFGGGTIYYPAGRPPGERLGAVTIVPGSRGYQSGMAWYGPLLASRGFIVFTIDTLHLKDQPAKRSLELEAALTYLATRSAVASHVDAERLAVMGHSLGGGGTLDLAATRPNLKAAIPLMPYDKAKDFSNVRVPTLVVAAQHDKIAPVGKHAEVFYRSIPASQPKAYLEIAGATHSFPKRRDATLAKYVIAWLKRYVDGDKRYDRFLCPGPQNDPHVARYASDCTPR [DP095]	< 25
ATGPSAPCTNCTRGPAPTTAALKSNTGPFTTAKFSVSGLLKGFGNSTVYYPTNTTGKMGAIAVIPGFLSYEDSIEWWGPRLASHGFVVMTMNTSTIYDQPDSRATQLSKALDYVISQSNTSSSPIYGKVDSTRLGAIGWSMGGGGSLKLSTQRSLNAIIPQAPYYAGLNSFNTIKTPALILACSADAVAPVGVHASPFYNKIPSTTPKAFLEIYGGSHFCANSGYPNQDLLGLYGISWMKRFIDFDTRYSQFLCGPNHTASGTISEYRQNCPY [ESM019]	< 25
QARDVTAGNPYQRGPDPTVAMIEARTGPFATASASVPAGYGFNGGMVYYPTDTSLGTWGALAIVPGYSALFANEEAWMGPWLASFGFVVIGVETTTRTDSADARGTELLSALNYLTTQSPVRDRVDPNRLSVLGHSAGGAGAMLAAQRQPTLKAAVGLAPGSPVGNLSLATDTVPTMVIGGQNDSVVTPSYLSGLYATMPASTQSAFAQIAGADHVYYTRPNNVETKLLIPWLKTFLDNDTRYVPFLCPAPPDPSSLSMYVPKCPYVPGGSGPGGGGNTGALHAVGAAKCLAAPSSGTPGTQLTIGTCDGQARQTWTRTATDQLTVTTAGATLCLDASGQGGSPGTKAIVWSCNGQANQHWNVNSNGTVTSAQSGLCLDVTGGSTAEGAPVELWTCNGGGNQQWHLG [TEP085]	< 25
DEIGQAPTAANITGNGSFAVTSAAVTGASGFGGGTVYYPTTAGTYPVVAIAPGFTQAWSAIQWLGPRLSSWGFVVVGINTNSSLDFPASRGTQLLAALNWAVASAPAAVTSRADGTRRGVAGYSMGGGGTLEALSQDTTGAVKAGVPMAPWHTDTTWQQVTEPVFILGGQNDSTAPVASHAKPMYNSLGGPKTYVELAGAPHSFPRTDNATTSRALVSWFKRWLNGDARFTPFTCGFTGTAISAYQTTAC [ESM099]	< 25
QSNPYQRGPNPTRAALMTDGPYAVATASVWPYIYGFGGGTIYYPTGTTETFGGIAVSPGFTADSTSLAWFGRRLASHGFVVIVINTNSRFDFPDSRASQLQAAIDYLRTNSPAAVRARLDENRIAVAGHSMGGGASLRASERLPWLKASVPLTPWHTDKTFSTSVPQLIIGAEWDTIAPVSSHAIPFYNNLPSSTPKVYLELNNATHFAPNTTNATISLYAISWMKRWVDNDTRYNQFLCGVNHTADPSISDYRTNAWTYCP [DP073]	< 25
FDPPNGAVIMVPGFRGTPPVYDWWGPMLASVGVITMIIETNTPEDSLEARKNAFIAGVEFLSGENDNPASPIRDKLDTSNIAIMGHSLGGGASLRAAEELGSRIKAVIPLTPYCCELGQSFEGNLSGVSVPTLIIASAEDAIAPPAEHARMLYDSVNAATEKVYLEFATGNHMLPSNSGQDLETLGTYVYAFIKENFTDNPRYADFIFGDGEEQFSTYEISQ [TEP136]	< 25
VEIGPAPTSTLLNGDGPFAVSTDSVSSLVTGFGGGTIYYPTTSGQYAAVAVCPGFTGTSSSISWFARRLATHGFVTIAMNTNTIYDYPSSRATQLAAALRYLLNSSSSTIRARIRTADRAVAGHSMGGGGTLIASANDSTLRAGIPLTPWNTYTSFSSVRVPQMIFGADGDTIAPYASHARPFYNSLSYPEKAYALLNGATHFTPNSTDQRIGRYGVAFAKRFVDGDTRYTPFLCGAEHTAYATSSRFDTYLSTCPY [TEP032]	< 25
